{"source": "patent US20040110684", "proteins": {"B1": {"name": "endothelial nitric oxide synthase (eNOS), endogenous, human umbilical vein endothelial cells (HUVECs) (protein)", "chain": "GNLKSVAQEPGPPCGLGLGLGLGLCGKQGPATPAPEPSRAPASLLPPAPEHSPPSSPLTQPPEGPKFPRVKNWEVGSITYDTLSAQAQQDGPCTPRRCLGSLVFPRKLQGRPSPGPPAPEQLLSQARDFINQYYSSIKRSGSQAHEQRLQEVEAEVAATGTYQLRESELVFGAKQAWRNAPRCVGRIQWGKLQVFDARDCRSAQEMFTYICNHIKYATNRGNLRSAITVFPQRCPGRGDFRIWNSQLVRYAGYRQQDGSVRGDPANVEITELCIQHGWTPGNGRFDVLPLLLQAPDDPPELFLLPPELVLEVPLEHPTLEWFAALGLRWYALPAVSNMLLEIGGLEFPAAPFSGWYMSTEIGTRNLCDPHRYNILEDVAVCMDLDTRTTSSLWKDKAAVEINVAVLHSYQLAKVTIVDHHAATASFMKHLENEQKARGGCPADWAWIVPPISGSLTPVFHQEMVNYFLSPAFRYQPDPWKGSAAKGTGITRKKTFKEVANAVKISASLMGTVMAKRVKATILYGSETGRAQSYAQQLGRLFRKAFDPRVLCMDEYDVVSLEHETLVLVVTSTFGNGDPPENGESFAAALMEMSGPYNSSPRPEQHKSYKIRFNSISCSDPLVSSWRRKRKESSNTDSAGALGTLRFCVFGLGSRAYPHFCAFARAVDTRLEELGGERLLQLGQGDELCGQEEAFRGWAQAAFQAACETFCVGEDAKAAARDIFSPKRSWKRQRYRLSAQAEGLQLLPGLIHVHRRKMFQATIRSVENLQSSKSTRATILVRLDTGGQEGLQYQPGDHIGVCPPNRPGLVEALLSRVEDPPAPTEPVAVEQLEKGSPGGPPPGWVRDPRLPPCTLRQALTFFLDITSPPSPQLLRLLSTLAEEPREQQELEALSQDPRRYEEWKWFRCPTLLEVLEQFPSVALPAPLLLTQLPLLQPRYYSVSSAPSTHPGEIHLTVAVLAYRTQDGLGPLHYGVCSTWLSQLKPGDPVPCFIRGAPSFRLPPDPSLPCILVGPGTGIAPFRGFWQERLHDIESKGLQPTPMTLVFGCRCSQLDHLYRDEVQNAQQRGVFGRVLTAFSREPDNPKTYVQDILRTELAAEVHRVLCLERGHMFVCGDVTMATNVLQTVQRILATEGDMELDEAGDVIGVLRDQQRYHEDIFGLTLRTQEVTSRIRTQSFSLQERQLRGAVPWAFDPPGSDTNSP"}}, "biological_target": "synthetic peptides derived from the caveolin scaffolding domain (CSD)", "data": [{"protein": "B1", "values": [{"measurement": "phosphorylation of eNOS (Ser1177) in atorvastatin-treated HUVECs, immunoblot", "value": "blocked the phosphorylation of eNOS"}]}]}
